Assay results taken from IntAct's records for PubMed 20080638.

B1: BBSome complex assembly protein BBS10 (Homo sapiens), Q8TAM1 (parent)
chain: MLSSMAAAGSVKAALQVAEVLEAIVSCCVGPEGRQVLCTKPTGEVLLSRNGGRLLEALHLEHPIARMIVDCVSSHLKKTGDGAKTFIIFLCHLLRGLHAITDREKDPLMCENIQTHGRHWKNCSRWKFISQALLTFQTQILDGIMDQYLSRHFLSIFSSAKERTLCRSSLELLLEAYFCGRVGRNNHKFISQLMCDYFFKCMTCKSGIGVFELVDDHFVELNVGVTGLPVSDSRIIAGLVLQKDFSVYRPADGDMRMVIVTETIQPLFSTSGSEFILNSEAQFQTSQFWIMEKTKAIMKHLHSQNVKLLISSVKQPDLVSYYAGVNGISVVECLSSEEVSLIRRIIGLSPFVPPQAFSQCEIPNTALVKFCKPLILRSKRYVHLGLISTCAFIPHSIVLCGPVHGLIEQHEDALHGALKMLRQLFKDLDLNYMTQTNDQNGTSSLFIYKNSGESYQAPDPGNGSIQRPYQDTVAENKDALEKTQTYLKVHSNLVIPDVELETYIPYSTPTLTPTDTFQTVETLTCLSLERNRLTDYYEPLLKNNSTAYSTRGNRIEISYENLQVTNITRKGSMLPVSCKLPNMGTSQSYLSSSMPAGCVLPVGGNFEILLHYYLLNYAKKCHQSEETMVSMIIANALLGIPKVLYKSKTGKYSFPHTYIRAVHALQTNQPLVSSQTGLESVMGKYQLLTSVLQCLTKILTIDMVITVKRHPQKVHNQDSEDEL
partner: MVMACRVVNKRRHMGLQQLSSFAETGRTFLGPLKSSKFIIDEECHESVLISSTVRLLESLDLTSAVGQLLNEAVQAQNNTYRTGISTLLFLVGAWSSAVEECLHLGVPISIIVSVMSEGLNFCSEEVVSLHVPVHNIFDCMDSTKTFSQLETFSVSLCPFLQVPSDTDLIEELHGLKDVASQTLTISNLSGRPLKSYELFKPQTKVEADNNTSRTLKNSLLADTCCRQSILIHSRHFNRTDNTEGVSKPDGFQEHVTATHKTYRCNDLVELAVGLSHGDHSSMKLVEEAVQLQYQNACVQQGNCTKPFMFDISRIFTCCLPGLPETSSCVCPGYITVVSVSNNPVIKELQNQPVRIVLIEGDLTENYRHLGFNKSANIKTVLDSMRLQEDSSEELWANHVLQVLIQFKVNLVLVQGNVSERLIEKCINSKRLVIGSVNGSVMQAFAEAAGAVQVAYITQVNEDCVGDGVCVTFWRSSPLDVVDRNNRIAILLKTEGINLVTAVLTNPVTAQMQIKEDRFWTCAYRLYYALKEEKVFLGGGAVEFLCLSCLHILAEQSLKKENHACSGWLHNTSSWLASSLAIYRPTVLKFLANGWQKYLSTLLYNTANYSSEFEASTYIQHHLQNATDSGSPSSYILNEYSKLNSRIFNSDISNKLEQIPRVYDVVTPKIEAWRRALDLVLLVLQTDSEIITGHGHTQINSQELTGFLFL
B2: Molecular chaperone MKKS (Homo sapiens), Q9NPJ1 (parent)
chain: MSRLEAKKPSLCKSEPLTTERVRTTLSVLKRIVTSCYGPSGRLKQLHNGFGGYVCTTSQSSALLSHLLVTHPILKILTASIQNHVSSFSDCGLFTAILCCNLIENVQRLGLTPTTVIRLNKHLLSLCISYLKSETCGCRIPVDFSSTQILLCLVRSILTSKPACMLTRKETEHVSALILRAFLLTIPENAEGHIILGKSLIVPLKGQRVIDSTVLPGILIEMSEVQLMRLLPIKKSTALKVALFCTTLSGDTSDTGEGTVVVSYGVSLENAVLDQLLNLGRQLISDHVDLVLCQKVIHPSLKQFLNMHRIIAIDRIGVTLMEPLTKMTGTQPIGSLGSICPNSYGSVKDVCTAKFGSKHFFHLIPNEATICSLLLCNRNDTAWDELKLTCQTALHVLQLTLKEPWALLGGGCTETHLAAYIRHKTHNDPESILKDDECTQTELQLIAEAFCSALESVVGSLEHDGGEILTDMKYGHLWSVQADSPCVANWPDLLSQCGCGLYNSQEELNWSFLRSTRRPFVPQSCLPHEAVGSASNLTLDCLTAKLSGLQVAVETANLILDLSYVIEDKN
partner: B1 partner
B3: BBSome complex assembly protein BBS10 (Homo sapiens), Q8TAM1 (parent)
chain: B1 chain
partner: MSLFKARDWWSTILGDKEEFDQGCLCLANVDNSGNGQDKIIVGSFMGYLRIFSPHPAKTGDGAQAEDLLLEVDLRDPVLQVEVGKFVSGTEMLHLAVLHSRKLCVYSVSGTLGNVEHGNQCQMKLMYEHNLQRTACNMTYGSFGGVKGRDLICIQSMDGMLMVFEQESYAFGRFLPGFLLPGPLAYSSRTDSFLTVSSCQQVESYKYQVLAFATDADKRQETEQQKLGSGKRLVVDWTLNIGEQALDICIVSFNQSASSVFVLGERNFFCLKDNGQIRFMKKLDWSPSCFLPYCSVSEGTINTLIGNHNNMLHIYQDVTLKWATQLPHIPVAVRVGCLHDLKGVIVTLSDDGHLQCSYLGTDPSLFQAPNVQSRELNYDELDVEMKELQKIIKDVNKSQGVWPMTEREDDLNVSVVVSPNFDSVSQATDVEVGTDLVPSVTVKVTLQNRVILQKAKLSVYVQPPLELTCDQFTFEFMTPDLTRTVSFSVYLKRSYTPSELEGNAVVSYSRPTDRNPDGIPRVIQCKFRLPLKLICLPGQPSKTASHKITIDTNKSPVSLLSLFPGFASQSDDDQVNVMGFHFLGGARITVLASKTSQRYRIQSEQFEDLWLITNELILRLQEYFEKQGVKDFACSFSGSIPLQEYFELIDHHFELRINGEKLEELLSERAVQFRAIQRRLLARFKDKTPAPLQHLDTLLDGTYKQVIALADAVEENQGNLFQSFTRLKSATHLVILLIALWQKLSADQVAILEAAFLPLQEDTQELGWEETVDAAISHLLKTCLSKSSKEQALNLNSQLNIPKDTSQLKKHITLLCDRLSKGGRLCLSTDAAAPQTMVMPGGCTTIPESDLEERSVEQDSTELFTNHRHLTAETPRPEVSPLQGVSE
B4: BBSome complex assembly protein BBS10 (Homo sapiens), Q8TAM1 (parent)
chain: B1 chain
partner: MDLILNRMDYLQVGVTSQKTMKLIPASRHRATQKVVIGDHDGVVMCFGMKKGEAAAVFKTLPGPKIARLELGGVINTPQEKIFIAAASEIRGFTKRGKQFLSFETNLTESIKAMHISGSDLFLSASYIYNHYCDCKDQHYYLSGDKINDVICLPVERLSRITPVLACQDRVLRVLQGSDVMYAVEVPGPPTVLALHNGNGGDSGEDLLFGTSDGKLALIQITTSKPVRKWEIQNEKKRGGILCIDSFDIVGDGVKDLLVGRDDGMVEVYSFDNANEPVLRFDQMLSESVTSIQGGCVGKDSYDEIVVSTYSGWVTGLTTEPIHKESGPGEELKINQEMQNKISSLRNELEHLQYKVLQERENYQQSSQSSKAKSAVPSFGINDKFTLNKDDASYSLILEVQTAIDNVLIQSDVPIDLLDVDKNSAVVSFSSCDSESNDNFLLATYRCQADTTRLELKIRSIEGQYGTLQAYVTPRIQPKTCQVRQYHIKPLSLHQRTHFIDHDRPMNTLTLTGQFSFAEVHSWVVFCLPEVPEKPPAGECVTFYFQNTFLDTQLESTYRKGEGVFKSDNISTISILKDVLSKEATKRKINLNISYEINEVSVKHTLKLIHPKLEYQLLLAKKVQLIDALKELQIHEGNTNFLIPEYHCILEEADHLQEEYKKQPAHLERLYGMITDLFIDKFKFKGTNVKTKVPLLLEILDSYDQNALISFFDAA
B5: Chaperonin-containing T-complex member BBS12 (Homo sapiens), Q6ZW61 (parent)
chain: B1 partner
partner: B2 chain

Variants of: B1
Details: with bbs12_human BBS12, Q6ZW61

Row | effect of a mutation on the interaction | Variant
1 | decreasing interaction | D81N
2 | decreasing interaction | V240G
3 | decreasing interaction | S329L
4 | decreasing interaction | S311A

Variants of: B2
Details: with bbs12_human BBS12, Q6ZW61

Row | effect of a mutation on the interaction | Variant
5 | decreasing interaction | MSRLEAKKPSLCKSEPLTTERVRTTLSVLKRIVTSCYGPSGRLKQLHNGFGGYVCTASQSSALLSHLLVTHPILKILTASIQNHVSSFSDCGLFTAILCCNLIENVQRLGLTPTTVIRLNKHLLSLCISYLKSETCGCRIPVDFSSTQILLCLVRSILTSKPACMLTRKETEHVSALILRAFLLTIPENAEGHIILGKSLIVPLKGQRVIDSTVLPGILIEMSEVQLMRLLPIKKSTALKVALFCTTLSGDTSDTGEGTVVVSYGVSLENAVLDQLLNLGRQLISDHVDLVLCQKVIHPSLKQFLNMHRIIAIDRIGVTLMEPLTKMTGTQPIGSLGSICPNSYGSVKDVCTAKFGSKHFFHLIPNEATICSLLLCNRNDTAWDELKLTCQTALHVLQLTLKEPWALLGGGCTETHLAAYIRHKTHNDPESILKDDECTQTELQLIAEAFCSALESVVGSLEHDGGEILTDMKYGHLWSVQADSPCVANWPDLLSQCGCGLYNSQEELNWSFLRSTRRPFVPQSCLPHEAVGSASNLTLDCLTAKLSGLQVAVETANLILDLSYVIEDKN [T57A]

Variants of: B3
Details: with pthb1_human BBS9, Q3SYG4

Row | effect of a mutation on the interaction | Variant
6 | decreasing interaction | R49W
7 | decreasing interaction | D81N

Variants of: B4
Details: with bbs7_human BBS7, Q8IWZ6

Row | effect of a mutation on the interaction | Variant
8 | decreasing interaction | R34P
9 | decreasing interaction | D81N
10 | decreasing interaction | V240G

Variants of: B5
Details: with mkks_human MKKS

Row | effect of a mutation on the interaction | Variant
11 | decreasing interaction | T501M
12 | disrupting interaction | I346T
13 | decreasing interaction | G540V
